In one data set the test system is IL-8. Briefly: Anti-inflammatory repair experiment, LPS-stimulated RAW264.7 cells, ELISA IL-8. To be noted: 100 ppm, 200 ng/mL LPS, 48 h, vs LPS group. The data set is classed as cell-based, mouse. The text has this: Mouse mononuclear macrophages (RAW264.7 cells).
Peptide (2), tested at a concentration of 100 ppm.
• a) Take RAW264.7 cells in good exponential growth phase, add 0.25% trypsin digestion solution, digest to make adherent cells fall off, count 1-4×10^6 cells/mL, and make cell suspension; • b) Appropriately dilute 100,000 cells/well of cell suspension and inoculate it on a 6-well plate, and establish an LPS-stimulated inflammation model when the cells reached about 80% confluent. Set blank control group (control), LPS group, dexamethasone group (DXM), polypeptide group. Add 1000 μL culture medium to the blank control group; add 200 ng/mL LPS to the LPS group, add culture medium to 1000 μL; add 200 ng/mL LPS and 50 ng/mL dexamethasone to the dexamethasone group, add culture medium to 1000 μL; add 200 ng/mL LPS and peptide (2) to the polypeptide group, add culture medium to 1000 μL (final test concentration of peptide is 100 ppm). […] The OD value of each well was sequentially measured at 450 nm with a microplate reader within 15 min after the reaction was terminated. […]

In data set [1] the test system is HaCaT cells. Briefly: UVB light damage repair experiment (MTT), HaCaT. It is filed as cell-based, human. Conditions: UVB irradiated, 12.5-100 ppm, 24 hours. As for the experimental part: (§1) Human keratinocytes (HaCaT) were purchased from the Kunming Cell Bank of the Type Culture Collection Committee of the Chinese Academy of Sciences, and mouse skin fibroblasts (NIH3T3) were purchased from the Shanghai Cell Bank of the Type Culture Collection Committee of the Chinese Academy of Sciences.
(§2) Take cells in good exponential growth phase, add 0.25% trypsin digestion solution, digest to make adherent cells fall off, count 1×10^5-4×10^5 cells/mL, and make cell suspension.
(§3) Cells were seeded into 96-well plates at 10,000 cells/well, and the UVB photodamage model was established when the cells reached about 80% confluent. […]
(§4) After 24 hours, add 22 μL of 5 mg/mL MTT to each well, place in an incubator and incubate for 4 hours, discard the original solution, and add 150 μL/well of DMSO. After 5 minutes, use a microplate reader to read the reference OD values at 490 nm and 630 nm wavelengths.
(§5) By establishing a UVB light-damaged cell model, administering 24 hours after ultraviolet light irradiation, and using the MTT method to detect cell proliferation activity, the ability of the peptide of the present invention to repair light-damaged cells was evaluated.

Data set [2] is described as follows: Stability of powders at 25° C. and 40° C. (HPLC purity over time).
Experimental: (§6) In Example 29, the HPLC chromatographic separation conditions were as follows: • Chromatographic column: Octadecyl bonded silica gel as filler 4.6*250 mm, 5 m • Mobile phase A: Acetonitrile (containing 0.09% trifluoroacetic acid) • Mobile phase B: 0.1% trifluoroacetic acid • Diluent: water • Flow rate: 1.0 ml/min; • Column temperature: 35° C.; • Detection wavelength: 215 nm; • Injection volume: 10 μl; • Running time: 32 min • Gradient elution table:
(§7) The test solution: Take an appropriate amount of this product and add water to dissolve and dilute to make a solution containing 1 mg per 1 ml.
For data set [3], the system named is HaCaT cells. Briefly: Cell proliferation experiment (MTT), HaCaT. It is filed as cell-based, human. Conditions: 24 hours.
Text: as §1
• a) Take cells in good condition in exponential growth phase, add 0.25% trypsin digestion solution, digest to make adherent cells fall off, count 1-4×10^5 cells/mL, and make cell suspension; • b) Appropriately dilute 2000 cells/well of the cell suspension and inoculate it on a 96-well plate at 200 μL/well, and culture it in a constant temperature CO2 incubator for 24 hours. • c) Change the medium, add the sample to be tested, 20 μL/well, and incubate for 24 hours; • d) Add the MTT reagent into the 96-well plate, 20 μL/well, and react in the incubator for 4 hours; • e) Aspirate the supernatant, add DMSO, 150 μL/well, and shake on a plate shaker for 5 minutes; • f) After 5 minutes, use a microplate reader to read the reference OD values at 490 nm and 630 nm wavelengths, and calculate the cell viability:
MTT method is a method to detect cell survival and growth. The measured OD value is directly proportional to cell activity. The larger the OD value, the higher the cell activity.

The nature of data set [4]: Stability of aqueous solutions (HPLC purity over time). The data set is classed as physicochemical.
Experimental: as §6, §7
The subject of a further data set is NIH3T3 cells. Put plainly: UVB light damage repair experiment (MTT), NIH3T3. It is filed as cell-based, mouse. To be noted: UVB irradiated, each dose of 12.5 ppm-100 ppm, 24 hours. As for the experimental part:
as §1, §2, §3, §4, §5

We go through 1 substance from patent US20240352069A1, “SYNTHETIC PEPTIDE, AND COSMETIC COMPOSITION OR PHARMACEUTICAL COMPOSITION AND APPLICATION THEREOF” (SHENZHEN WINKEY TECHNOLOGY CO., LTD., priority 2021, published 2024).

As to “H-Ala-Pro-Phe-Arg-Met-Gly-Ile-Met-Thr-Thr-Asn-OH (H-APFRMGIMTTN-OH) [Peptide (2)]”, the “expression of IL-8” value in the data set on IL-8 is reported as “significantly down-regulated”. Also, the “effect on improving activity of photodamaged HaCaT cells compared among peptides (1)-(5)” value in the data set on HaCaT cells [1] is listed as “better effect on improving cell activity”. For the same substance, the “powder (purity)” value is listed as 99.146% in data set [2] (25° C., Day 20); 98.583% in data set [2] (40° C., Day 20, listed as Peptide(2)); “remained unchanged” in data set [2] (40° C., Day 20, listed as peptide (2)); 99.291% in data set [2] (powder, Day 0). Moreover, the “impact on the activity of HaCaT cells compared among peptides (1)-(5)” value in the data set on HaCaT cells [3] (12.5-100 ppm) was “greater impact on the activity of HaCaT cells”. Moreover, the “effect on the activity of HaCaT cells (MTT)” value in the data set with HaCaT cells [3] (12.5 ppm-100 ppm, vs PBS blank control) was “could both improve the activity of HaCaT cells, promote their proliferation”. The “aqueous solution (purity)” value in data set [4] (Day 8 at room temperature) is listed as 99.122%; in data set [4] (Day 18 at room temperature) it was 98.045%; in data set [4] (Day 18 at room temperature, listed as peptide (2)), “did not change significantly”; in data set [4] (Solution, Day 0) it was 99.291%. Also, in the data set on NIH3T3 cells, the “activity of photodamaged NIH3T3 cells (MTT)” value is “can significantly increase NIH3T3 cell activity”.
